Reference: US20190248902A1 (published 2019)
Substitutions are numbered along the chain they refer to.

T1: Cyno ASGR-1 (cynomolgus monkey, UniProt P07306 1-291 (human entry))
T1 construct: Expressed on HEK 293 cells or as membrane prep on beads; cDNA from XP_005582755; also called cynomologus monkey ASGR-1
T1 chain: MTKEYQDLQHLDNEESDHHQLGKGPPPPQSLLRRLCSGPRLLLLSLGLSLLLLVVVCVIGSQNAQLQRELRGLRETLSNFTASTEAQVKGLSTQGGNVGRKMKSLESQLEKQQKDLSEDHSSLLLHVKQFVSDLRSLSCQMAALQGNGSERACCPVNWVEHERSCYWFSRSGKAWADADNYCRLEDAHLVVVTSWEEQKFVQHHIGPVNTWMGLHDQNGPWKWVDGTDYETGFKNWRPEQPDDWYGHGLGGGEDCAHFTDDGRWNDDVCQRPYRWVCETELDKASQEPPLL

T2: Pig ASGR-1 (pig)
T2 construct: Expressed on HEK 293 cells or as membrane prep on beads; cDNA GenBank NM_001244458
T2 chain: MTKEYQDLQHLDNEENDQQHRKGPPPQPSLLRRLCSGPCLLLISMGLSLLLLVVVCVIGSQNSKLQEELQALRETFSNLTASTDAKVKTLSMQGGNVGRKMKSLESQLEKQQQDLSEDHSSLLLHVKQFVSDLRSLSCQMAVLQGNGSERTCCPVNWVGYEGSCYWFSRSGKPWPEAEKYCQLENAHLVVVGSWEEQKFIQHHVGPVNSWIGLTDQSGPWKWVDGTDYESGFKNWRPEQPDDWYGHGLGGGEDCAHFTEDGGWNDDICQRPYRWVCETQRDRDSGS

T3: Mouse ASGR-1 (mouse, UniProt P34927 1-284)
T3 construct: Expressed on HEK 293 cells or as membrane prep on beads; cDNA GenBank BC022106.1; also called muASGR-1; mASGR-1
T3 sequence: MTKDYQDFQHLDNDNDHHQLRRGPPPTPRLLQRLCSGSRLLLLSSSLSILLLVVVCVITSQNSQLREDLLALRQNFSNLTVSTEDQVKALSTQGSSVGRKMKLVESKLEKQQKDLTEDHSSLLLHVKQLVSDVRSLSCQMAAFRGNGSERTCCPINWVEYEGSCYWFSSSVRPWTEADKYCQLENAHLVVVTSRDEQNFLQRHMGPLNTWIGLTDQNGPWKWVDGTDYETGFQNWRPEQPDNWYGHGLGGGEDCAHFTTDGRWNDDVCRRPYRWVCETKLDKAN

B1: 176H4 (antibody, V domains shown)
VH: QVQLVESGGGVVQPGRSLRLSCAASGFTFSSYGMHWVRQAPGKGLEWVAIIWYDGSYKYYADSVKGRFTISRDNSKNTLYLQMSSLRAEDTAVYYCARDAHDFWSGYFAYWGQGALVTVSS
VL: DIVMTQTPLSLSVTPGQPASISCKSSQSLLHGDGKTYLYWYLQKPGQPPQLLIYEVSNRFSGVPDRFSGSGSGTDFTLKISRVEAEDVGIYYCMQSIQIPWTFGQGTRVEIK
notes: Tested as hybridoma supernatant at normalized concentration
B2: 218G4 (antibody, V domains shown)
VH: QVQLVESGGGVVQPGRSLRLSCAASGFTFSSYGLHWVRQAPGKGLEWVAVIWYDGSNKYYADSVKGRFTISRDNSKNTLYLQMNSLRVEDTAVYYCANWYYYYYGMDVWGQGTTVTVSS
VL: QSVLTQPPSVSAAPGQKVTISCSGSSSNIGNNYVSWYQQLPGTAPKLLLYDSNKRPSGIPARFSGSKSGTSATLGITGLQTGDEADYYCGTWDSSLNTVVFGGGTKLTVL
notes: as for B1
B3: 198D2 (antibody, V domains shown)
VH: QVQLVESGGGVVQPGRSLRLSCAASGFTFRSYGMHWVRQAPGKGLEWVAVIIYDGSYKYYADSVKGRFTISRDNSKNTLYLQMNSLRAEDTAVYYCARTYSGGMDVWGQGTTVTVSS
VL: B2 VL with N31S, L47V, L49I, S52N, A61D, S95R, T98V, V99G
notes: as for B1
B4: 75G3 (antibody, V domains shown)
VH: QVQLQQWGAGLLKPSETLSLTCAVYGGSLSGSYWSWIRQPPGKGLEWIGEINLSGSTNYNPSLKSRVTISVDTSKSQFSLTLRSVTAADTAVYYCARDYGGLDYWGQGTLVTVSS
VL: EIVLTQSPGTLSLSPGERATLSCRARQNVDSSYLAWYQQKPGQAPRLLIYGASSRATGIPDRFSGSGSGTDFTLTISRLEPEDFAVFYCQQYERSPWTFGQGTKVEIK
notes: as for B1
B5: 202A3 (antibody, V domains shown)
VH: QVQLEQSGAEVKKPGASVKVSCKASGYTFTSYDINWVRQATGQGLEWLGWMNPKRGNTGYAQKFQGRVTMTRNTSISTAHMELSSLRSEDTAVYYCARGRYSREDYYYYYDMDVWGQGTTVTVSS
VL: DIQMSQSPSSLSASVGDRVTITCRASQGIRNDLGWYQQKPGKAPKRLICAASRLQSGVPSRFSGSGSGTEFTLTISSLQPEDFAIYYCLQHHDYPFTFGPGTKVDIK
notes: as for B1
B6: 7E11 (antibody, V domains shown)
VH: QVQLVESGGGVVQPGRSLRLSCAASGFTFSSFGMHWVRQAPGKGLEWVAIIWHDGSNKYYADSVKGRFTISRDNSNNTLYLQMSSLRAEDTAVYYCARDLSMGGMDVWGQGTTVTVSS
VL: DIQMTQSPSSLSASVGDRVTIACRASQNIISYLNWYQQKPGKAPKFLIYTASSLQSGVPSRFSGSGSGTDFTLTISSLQPEDFAIYYCQQTYSTPLTFGGGTKVEIK
notes: as for B1
B7: 54E9 (antibody, V domains shown)
VH: QVQLVQSGAEVKKPGASVKVSCKASGYTFNSYGISWVRLAPGQGLEWMGWISAYNGNTKNAQKLQGRVTMTTDTSTSTAYMELRSLRSDDTAVYYCARHDFWSGYYKGMDVWGQGTTVTVSS
VL: not shown
notes: as for B1
B8: 190F8 (antibody, V domains shown)
VH: QVQLVESGGGVVQPGRSLRLSCAASGFTFSTYGMHWVRQAPGKGLEWVAVIWYDGSNKNYADSVKGRFTISRDNSKNTLYLQMNSLRAEDTAVYYCARDQGVGYDGLDVWGQGTTVTVSS
VL: DIQMTQSPSSLSASVGDRVTITCRTSQGIGNYLAWFQQKPGKAPKSLLYKASSLQSGVPSKFSGSGSGTDFTLTISSLQPEDFATYYCQQYMTYPLTFGGGTKVEIK
notes: as for B1
B9: 194C1 (antibody, V domains shown)
VH: B8 VH with T31S, K58E, N59H, D99N, Q100R, D105Y
VL: B8 VL with T25A, G30S, L48I, K50A, Q89L, Q90H, M92L
notes: as for B1
B10: 197G3 (antibody, V domains shown)
VH: B8 VH with A23V, T31S, Y32H, Q100P, G101S, L107M
VL: DIQMTQSPSSLSASVGDRVTITCRASQGIGNHLAWFQQKPGKAPKSLIYAASSLQSGVPSKFSGSRSGTDFSLTISSLQPEDFATYYCQQYSNYPVTFGPGTKVDIK
notes: as for B1
B11: 191G10 (antibody, V domains shown)
VH: B8 VH with T31S
VL: B8 VL with N31K, A51V
notes: as for B1
B12: 198G3 (antibody, V domains shown)
VH: B8 VH with R19K, S56T, Y80C
VL: B8 VL with T5A, N31K, S56G
notes: as for B1
B13: 191G1 (antibody, V domains shown)
VH: B8 VH with T31S, K58E, N59H, Q100R, D105Y
VL: B8 VL with T25A, G30S, L48I, K50A, Q90H, M92L
notes: as for B1
B14: 6G7 (antibody, V domains shown)
VH: QVQLVESGGGVVQPGRSLRLSCAASGFTFSSYGMHWVRQTPGKGLEWVAIISYVGKNKYYADSVKGRFTISRDNSKNTLYLQMNSLRAEDTAVYYCARRGNSYGGYGMDVWGQGTTVTVSS
VL: DIQMTQSPSSRSASVGDRVTITCQASQDISNYLNWCQQKPGKALKLLIYDASTLETGVPSRFSGSGSGTDFTFTISSVQPEDIATYYCQQYDNVPITFGQGTRLEIK
notes: as for B1
B15: 7G4 (antibody, V domains shown)
VH: QVQLVESGGGVVQPGRSLRLSCAASGFTFNNYVMHWVRQAPGKGLEWVAVIWYDGSNKYYADSVKGRFTISRDNSKNTLYLQMTSLRAEDTAVYYCAREKYSSNWYDYGMDVWGQGTTVTVSS
VL: DIQMTQSPSSLSASVGDRVTITCRASQGIRNDLGWYQQRPGKAPKRLIYAASSLQSGVPSRFSGSGSGTEFTLTISSLQPEDSATYYCLHQYSYPRTFGQGTKVEIK
notes: as for B1
B16: 5E5 (antibody, V domains shown)
VH: B15 VH with N30S, T84N, A97T, K100V, N104G
VL: B15 VL with R39K, S83F, H90Q, Q91H, I106V
notes: as for B1

Biological target: T1, Cyno ASGR-1
Experiment: FACS on transfected HEK 293 cells or membrane preps on beads; Y = signal at least 2x irrelevant IgG
Procedure: (§1) Human ASGR-1-specific, ligand competing antibody samples were tested for binding to ASGR-1 from other species (cynomologus monkey ASGR-1, mouse ASGR-1, rat ASGR-1, dog ASGR-1, and pig ASGR-1) as well as to human ASGR-2 in FACS binding assays at normalized antibody concentrations. For cell-based assays, HEK 293 cells expressing the appropriate antigen of interest were mixed with antibody sample or controls, incubated for 1 hour at 4° C., and then washed twice. Cells with bound antibody were then incubated with Alexa Fluor® 647 IgG Fc fragment-specific detection antibody and 7-AAD viability stain for 15 minutes at 4° C., washed once and resuspended in FACS buffer. Samples were analyzed using a BD Accuri™ Flow Cytometer and an Intellicyt HyperCyt Autosampler. As a negative control, supernatants and controls were also screened against HEK 293 cells transfected with empty parental vector. […] For membrane-prep binding assays, ASGR-1 species specific membrane preps were used to coat LumAvidin® microspheres (beads) and tested for binding to selected hybridoma supernatants or controls. Briefly, ASGR-1 species specific membrane preps were incubated with streptavidin-coated LumAvidin® beads for 45 minutes in the dark at room temperature and washed twice. Beads were resuspeneded in FACS buffer containing Stabilguard®. Antigen-bound beads were then incubated with normalized antibody sample for 1 hour in the dark at room temperature, washed twice, incubated with Alexa Fluor® 488 IgG Fc fragment-specific detection antibody for 15 minutes in the dark at room temperature, washed once and finally resuspended in FACS buffer. Samples were analyzed using an Intellicyt iQue™ Screener Platform. FACS buffer supplemented with 1 mM Calcium Chloride was used in all steps. As a negative control, supernatants and controls were also screened against a non-ASGR-1 antigen membrane prep coated on the LumAvidin® beads.

Row | binding result | Binder
1 | binds | B1
2 | binds | B2
3 | binds | B3
4 | binds | B4
5 | binds | B5
6 | binds | B6
7 | binds | B7
8 | binds | B8
9 | binds | B9
10 | binds | B10
11 | binds | B11
12 | binds | B12
13 | binds | B13
14 | binds | B14
15 | binds | B15
16 | binds | B16

Biological target: T2, Pig ASGR-1
Experiment: as above
Procedure: as §1

Row | binding result | Binder
17 | binds | B1
18 | binds | B2
19 | binds | B3
20 | binds | B4
21 | binds | B5
22 | binds | B6
23 | binds | B8
24 | binds | B9
25 | binds | B10
26 | binds | B11
27 | binds | B12
28 | binds | B13
29 | binds | B15

biological target: T3, Mouse ASGR-1; experiment: FACS on transfected HEK 293 cells or membrane preps on beads; binding = signal at least 2x irrelevant IgG
Procedure: as §1

Row | binding result | Binder
30 | no binding | B1
31 | no binding | B2
32 | no binding | B3
33 | no binding | B4
34 | no binding | B5
35 | no binding | B6
36 | no binding | B7
37 | no binding | B8
38 | no binding | B9
39 | no binding | B10
40 | no binding | B11
41 | no binding | B12
42 | no binding | B13
43 | no binding | B14
44 | no binding | B15
45 | no binding | B16
